{
  "source": "the DeepSol protein solubility set",
  "data": [
    {"assay": "soluble on expression in E. coli; label from the status in PepcDB or PDB records", "values": [
      {"sequence": "MLEQPIGVIDSGVGGLTVAKEIMRQLPKENIIYVGDTKRCPYGPRPEEEVLQYTWELTNYLLENHHIKMLVIACNTATAIALDDIQRSVGIPVVGVIQPGARAAIKVTDNQHIGVIGTENTIKSNAYEEALLALNPDLKVENLACPLLVPFVESGKFLDQTADEIVKTSLYPLKDTSIDSLILGCTHYPILKEAIQRYMGEHVNIISSGDETAREVSTILSYKGLLNQSPIAPDHQFLTTGARDQFAKIADDWFGHEVGHVECISLQEPIKR", "soluble on expression in E. coli": "soluble"},
      {"sequence": "AHHHHHHGSTLRLLNDFVKDKLFGETVLVENNSYLGVETLLFVIFKLGEELNVPILVEDVLDTFSIYKKHLEMLGLKTPENIKILKIGGSEEGKGVVKRIPFDFDISRYLLEYGKSFEDVSPKEKFIDLVFGLDRFFILIDNLIDTAKLLNSIKNYIHNENRTAFYFIEANLLKATKPIILYYLEDIATSVVRINQEKNILTFEPVKDIWSVRNKINQISISFGDLFRETL", "soluble on expression in E. coli": "not soluble"},
      {"sequence": "MGSDKIHHHHHHVNELSADVVILGGGLVGMTLAIGLAKAGISSHVVDNSDPAAQTAEGFDGRASAISTASWNLYANLGMADELAPKGCPIEAIAVTDAMKPGRIDFKPGEGDGSLGRMYANRDLRIAMYAAAAREEAITFHTNANVIHRERGEHGVSVTLADGRILKGRLLVGAEGRRSPTRDEAGFTPARWDYGHRAIIAGLTHEKPHGNVAWEVFYPAGPFALLPLLDDEDGSHRSALVWTVAEKDASAVLAMPEPMFLDEVSKRMHEIFGEIRLASPRSSYPLNFHHTARIVEQRLALVGDAAHGMHPIAGQGLNVGLRDVAALVEVLADGVRLGLDVGDAQLLARYERWRAADTFMVATATDVLTRLFGLPGRVPSAIRRLGMAGVQRMGPLKRWFMDEARGMSGDLPKLLRAA", "soluble on expression in E. coli": "not soluble"},
      {"sequence": "MGSDKIHHHHHHMIEVEIDKDSGFCFGVVTAIESAERELGNTDTLYCLGDIVHNSLEVERLEHMGLHTIDHEGLSRLRDRKVLLRAHGEPPSTYALAKRNNITIIDATCPVVLRLQRKIHKCYQETRANNTQLVIYGKKGHAEVNGLVGQTEGTAIVIEKIEDLDRLDFTRAISLFSQTTKSLDGFKAVVAEIKQRMAEGVEFNYYDTICRQVANRLPNIKAFASSHDWVYFVAGRKSSNGKMLFEECRKANPNTLFISEVSEITEPLPEGVRRVGVCGATSTPKWLMEEVAVRIKELNASE", "soluble on expression in E. coli": "not soluble"},
      {"sequence": "MSLRQPNPSQKKAPTGQVRIISGLWRGRKLPVHDAEGLRPTTDRVKETLFNWLAQEVPNARCLDLFAGSGGLGFECASRQANQVTMLELNPLAFQQLKTNVQSLKAENIELIHTDALAFLRQSGKPYDVVFIDPPFRQGLLQETTQLLEQNGWLAPQAMIYIECEKELPLTELPPHWHLHREKSAGQVCYREGHHHHHH", "soluble on expression in E. coli": "not soluble"},
      {"sequence": "MNASDFRRRGKEMVDYMADYLEGIEGRQVYPDVQPGYLRPLIPATAPQEPDTFEDILQDVEKIIMPGVTHWHSPYFFAYFPTASSYPAMLADMLCGAIGCIGFSWAASPACTELETVMMDWLGKMLQLPEAFLAGEAGEGGGVIQGSASEATLVALLAARTKVVRRLQAASPGLTQGAVLEKLVAYASDQAHSSVERAGLIGGVKLKAIPSDGKFAMRASALQEALERDKAAGLIPFFVVATLGTTSCCSFDNLLEVGPICHEEDIWLHVDAAYAGSAFICPEFRHLLNGVEFADSFNFNPHKWLLVNFDCSAMWVKRRTDLTGAFKLDPVYLKHSHQGSGLITDYRHWQLPLGRRFRSLKMWFVFRMYGVKGLQAYIRKHVQLSHEFEAFVLQDPRFEVCAEVTLGLVCFRLKGSDGLNEALLERINSARKIHLVPCRLRGQFVLRFAICSRKVESGHVRLAWEHIRGLAAELLAAEEGKAEIKS", "soluble on expression in E. coli": "soluble"},
      {"sequence": "MGSDKIHHHHHHMMPVRQTLSKPDIQLSYLEWNQGQEPLLLLHGLGDHALVWSSLGDYLAADYHIVAPDMRGHGESTKPERDYTFESAIADLEALMDHLGWTSAQIVSHSWTGKLAAIWARQNRKRLRSIILVDPIFIWKMPSLLRLTFPMLYRFLPFLKSMGPFTSHEEAEQQARQLKQYQGWSSLQEQVFQAGIEQKPDGSWGSKFTIAARDEIFEAVMQVPGFTIPLDIQALFIQPEQGLNRQDWQIQPYKTYLKKLRICQVPGNHWPFLTQPETFNQTVAAFLAEHR", "soluble on expression in E. coli": "not soluble"},
      {"sequence": "MLAFGPVPSRRLGRSLGVNNIPAKICSYACVYCQIGKTLKMEVERRKFYEPERIYNDVSAKVKSGERIDYITFVPDGEPTLDINLGKEAEMLRDFGIKLAILTNSSLIWREDVREDLMNFDLVSLKLDAVSDDIWRKVNRPHKSLSLEKILEGMLDFRKEFKGTIITETMLINIDYGEELEKIATFLKELKPDKAYIAIPTRPPAESWVKPASEVIINKAYQLFSEALGEERVEYLIGYEGNAFAFTGNVEEDLLSITAVHPMREEAVRELLRKAGASWDVVEKMIKEGKLIELEYNGKKFYMRKLGSR", "soluble on expression in E. coli": "not soluble"}
    ]}
  ]
}
